Patent US20030235860A1, “Interactions between AR, ER, TR2, and TR4” (priority 1999, published 2003)
Blank lines part the entries; values can stand above or below the molecule they belong to.

Tests used:
PR = target: T1, PR (Homo sapiens, UniProt P06401); assay: PR-mediated transactivation (MMTV reporter); format: cell-based
T1 construct: expressed in transfected cells; host or cells: H1299 (pSG5-PR)
T1 sequence (P06401 1-933): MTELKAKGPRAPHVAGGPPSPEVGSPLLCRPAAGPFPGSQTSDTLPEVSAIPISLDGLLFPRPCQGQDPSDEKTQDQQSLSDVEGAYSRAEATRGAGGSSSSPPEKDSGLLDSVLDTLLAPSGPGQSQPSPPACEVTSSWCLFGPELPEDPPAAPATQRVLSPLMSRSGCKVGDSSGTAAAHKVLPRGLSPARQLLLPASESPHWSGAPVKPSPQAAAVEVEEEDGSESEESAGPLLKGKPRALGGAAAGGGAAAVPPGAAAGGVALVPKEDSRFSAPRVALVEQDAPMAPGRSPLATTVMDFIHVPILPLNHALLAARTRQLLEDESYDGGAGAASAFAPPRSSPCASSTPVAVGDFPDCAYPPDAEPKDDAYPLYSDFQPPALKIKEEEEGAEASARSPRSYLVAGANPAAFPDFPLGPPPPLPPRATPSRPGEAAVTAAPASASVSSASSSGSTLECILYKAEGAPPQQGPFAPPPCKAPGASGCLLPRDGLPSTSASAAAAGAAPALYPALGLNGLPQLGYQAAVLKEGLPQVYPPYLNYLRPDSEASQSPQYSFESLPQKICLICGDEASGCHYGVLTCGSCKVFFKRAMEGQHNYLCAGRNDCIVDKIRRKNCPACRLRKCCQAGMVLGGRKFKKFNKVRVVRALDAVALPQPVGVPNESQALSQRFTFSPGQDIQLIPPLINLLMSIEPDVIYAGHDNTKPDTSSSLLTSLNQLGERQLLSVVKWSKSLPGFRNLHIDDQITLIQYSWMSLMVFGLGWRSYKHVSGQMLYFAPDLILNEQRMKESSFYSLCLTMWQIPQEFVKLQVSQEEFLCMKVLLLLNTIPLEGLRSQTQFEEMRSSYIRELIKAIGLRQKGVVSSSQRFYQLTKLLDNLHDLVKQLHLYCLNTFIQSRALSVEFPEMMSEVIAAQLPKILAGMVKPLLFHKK

ERβ = target: T2, ERβ (Mus musculus, UniProt O08537); assay: ERβ-mediated transactivation (ERE reporter); format: cell-based
T2 construct: expressed in transfected cells; host or cells: HEK293 (TR2 experiment), H1299 (TR4 experiment)
T2 sequence (O08537 whole entry): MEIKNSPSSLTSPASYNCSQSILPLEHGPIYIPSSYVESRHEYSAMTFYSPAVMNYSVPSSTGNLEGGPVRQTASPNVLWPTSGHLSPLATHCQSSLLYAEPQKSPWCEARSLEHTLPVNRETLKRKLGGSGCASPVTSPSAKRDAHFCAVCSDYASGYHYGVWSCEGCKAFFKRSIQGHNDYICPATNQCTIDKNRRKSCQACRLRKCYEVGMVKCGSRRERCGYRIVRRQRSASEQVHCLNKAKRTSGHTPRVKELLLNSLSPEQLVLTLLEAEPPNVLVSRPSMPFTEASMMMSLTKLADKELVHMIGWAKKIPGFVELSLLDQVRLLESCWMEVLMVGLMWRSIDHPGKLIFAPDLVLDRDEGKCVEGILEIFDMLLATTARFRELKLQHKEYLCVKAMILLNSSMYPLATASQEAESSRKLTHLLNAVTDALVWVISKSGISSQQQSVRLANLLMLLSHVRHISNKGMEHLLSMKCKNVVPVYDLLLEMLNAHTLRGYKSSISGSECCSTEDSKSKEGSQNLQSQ
Experimental: (A) TR2 repression of ER-mediated ERE-tk-CAT reporter genes in PC-3, H1299, MCF7, and T47D cells. Cells in 60-mm dishes were co-transfected with […] of ERE-CAT, pSG5-ER, and/or pCMV-TR2 by calcium phosphate precipitation methods. 1 mg of b-galactosidase expression plasmid, pCMV-b-gal, was used as an internal control for transfection efficiency. CAT activity is presented relative to the response to ethanol, which is set as one. (B) MCF7-pBIG and MCF7-TR2 cells were stably transfected with doxycycline-inducible pBIG2i and pBIG2I-FLAG-TR2 plasmids, respectively. Cells were transfected with […] of pCMV-b-gal and, after 16 hr, were treated with or without […] doxycycline. […] FLAG-TR2 induction was monitored by Western blotting using anti-FLAG antibody (M2), shown in the upper panel. […] Relative mRNA expression amounts were normalized by 28S expression and quantitated by ImageQuant V.1.2 (Molecular Dynamics). […] Luciferase activity was analyzed following manufacturer's instructions (Promega). […]
H1299 and MCF-7 cells were maintained in Dulbecco's modified eagle medium (DMEM) containing penicillin (25 units/ml), streptomycin (25 μg/ml), and 10% fetal calf serum (FBS). […] The CAT activity was visualized by Phosphorlmager (Molecular Dynamics) and quantitated by IMAGEQUANT software (Molecular Dynamics). The luciferase activity was determined by the Luminometer (Turner Designs).

PR-mediated MMTV-LUC reporter activity (PR; H1299 cells, 10 nM progesterone, increasing TR4): failed to suppress
B1: TR4: human testicular orphan nuclear receptor 4, SEQ ID NO:16; expressed from plasmid or in vitro translated (protein)
chain: MTSPSPRIQIISTDSAVASPQRIQGSEPASGPLSVFTSLNKEKIVTDQQTGQKIQIVTAVDASGSPKQQFILTSPDGAGTGKVILASPETSSAKQLIFTTSDNLVPGRIQIVTDSASVERLLGKTDVQRPQVVEYCVVCGDKASGRHYGAVSCEGCKGFFKRSVRKNLTYSCRSSQDCIINKHHRNRCQFCRLKKCLEMGMKMESVQSERKPFDVQREKPSNCAASTEKIYIRKDLRSPLIATPTFVADKDGARQTGLLDPGMLVNIQQPLIREDGTVLLATDSKAETSQGALGTLANVVTSLANLSESLNNGDTSEIQPEDQSASEITRAFDTLAKALNTTDSSSSPSLADGIDTSGGGSIHVISRDQSTPIIEVEGPLLSDTHVTFKLTMPSPMPEYLNVHYICESASRLLFLSMHRARSIPAFQGLGQDCNTSLVRACWNELFTLGLAQCAQVMSLSTILAAIVNHLQNSIQEDKLSGDRIKQVMEHIWKLQEFCNSMANWDIDGYEYAYLKAIVLFSPDHPGLTSTSQIEKFQEKAQMELQDYVQKTYSEDTYRLARILVRLPALRLMSSNITEELFFTGLIGNVSIDSIIPYILKMETAEYNGQITGVSL
E2-induced ERE-CAT activity, ERβ (ERβ; H1299 cells, 10 nM E2, increasing TR4 expression plasmid): suppression of the E2-induced CAT activity in a dose-dependent manner

B2: TR2: human testicular orphan nuclear receptor 2, 603 amino acids (protein, UniProt P13056 1-603, looked up)
chain: MATIEEIAHQIIEQQMGEIVTEQQTGQKIQIVTALDHNTQGKQFILTNHDGSTPSKVILARQDSTPGKVFLTTPDAAGVNQLFFTTPDLSAQHLQLLTDNSPDQGPNKVFDLCVVCGDKASGRHYGAVTCEGCKGFFKRSIRKNLVYSCRGSKDCIINKHHRNRCQYCRLQRCIAFGMKQDSVQCERKPIEVSREKSSNCAASTEKIYIRKDLRSPLTATPTFVTDSESTRSTGLLDSGMFMNIHPSGVKTESAVLMTSDKAESCQGDLSTLANVVTSLANLGKTKDLSQNSNEMSMIESLSNDDTSLCEFQEMQTNGDVSRAFDTLAKALNPGESTACQSSVAGMEGSVHLITGDSSINYTEKEGPLLSDSHVAFRLTMPSPMPEYLNVHYIGESASRLLFLSMHWALSIPSFQALGQENSISLVKAYWNELFTLGLAQCWQVMNVATILATFVNCLHNSLQQDKMSTERRKLLMEHIFKLQEFCNSMVKLCIDGYEYAYLKAIVLFSPDHPSLENMEQIEKFQEKAYVEFQDYITKTYPDDTYRLSRLLLRLPALRLMNATITEELFFKGLIGNIRIDSVIPHILKMEPADYNSQIIGHSI
modifications: full-length
notes: human testicular orphan nuclear receptor 2, 603 amino acids
PR-mediated transactivation (MMTV-CAT) (PR; H1299 cells, 10^−8 M progesterone, increasing TR2): little effect
PR-mediated transcription (MMTV-CAT) (PR; T47D cells, Example 2): marginal effect
ERβ-mediated transcription (ERE-Luc) (ERβ; HEK293 cells, TR2): suppress
